In the nanobody polyreactivity screen of Harvey et al. (2022):

assay: yeast display, Sf9 membrane polyspecificity reagent, FACS + sequencing; frameworks hold sequencing errors
How it was run: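 Galactose induction of a Saccharomyces cerevisiae BJ5465 synthetic nanobody display library ran 36–48 hours. The cells were then stained for 1 hour at 4 °C with 10% biotinylated, detergent-solubilized Sf9 membrane reagent, pulled down on streptavidin microbeads and FACS-sorted into low and high (top ~1%) gates on expression and reagent-binding fluorescence. Labels for polyreactivity follow the gate of origin.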

Sequence | polyreactivity (PSR sort gate)
QVQLVESGGGLVQAGGSLRLSCAASGSIFGTNAMGWYRQAPGKERELLAAISLSTGSTYYADSVKGRITISRDYAKNTVYLQMNSLKPEDTAVYYCAVRHRYTRAYWGRDYWGQGTQVTVSS | low polyreactivity
QVQLVESGGGLVQAGGSLRLSCAASGSIFGTNAMGWYRQAPGKERELVAAIDGGSTTYYADSVKGRFTISRDNAKNTVYLQMNSLKPEDTAVYYCAADGTRYLNDEGYAGYEYWGQGTQVTVSS | low polyreactivity
QVQLVESGGGLVQAGGSLRLSCAASGSIFGTNAMGWYRQAPGKERELVAAISFSGGDTYYADSVKGRFTISRDNAKKTVYLQMNRLKPEDTAVYYCAAEVPDTDAYGYWGQGTQVTVSS | low polyreactivity
QVQLVESGGGLVQAGGSLRLSCAASGSIFGTYAMGWYRQALGKERELVASIRFNGRTFYADSVKGRFTISRDNAKNTVYLQMNSLKPEDTAVYYCAAQTWYGFPNYYWGQGTQVTVSS | high polyreactivity
QVQLVESGGGLVQAGGSLRLSCAASGSIFGTYAMGWYRQAPGKEREFVADISGIGTSTYYADSVKGRFTISRDNAKNTVYLQMNSLKPEDTAVYYCAACYPPLRGYYYWGQGTQVTVSS | low polyreactivity
QVQLVESGGGLVQAGGSLRLSCAASGSIFGTYAMGWYRQAPGKERELVARISGGGSTYYADSVKGRFTISRDNAKNTVYLQMNSLKPEDTAVYYCNVRKWAYWSHAIIYNYWGQGTQVTVSS | high polyreactivity
QVQLVESGGGLVQAGGSLRLSCAASGSIFGVNAMGWYRQAPGKERELVAAISSSTGRTYYADSVKGRFTISRDNAKNTVYLQMNSLKPEDTAVYYCAADFTSYRRGWTYGYWGQGTQVTVSS | high polyreactivity
QVQLVESGGGLVQAGGSLRLSCAASGSIFGVNAMGWYRQAPGKERELVASITGGDSTNYADSVKGRFTISRDNAKNTVYLQMNSLKPEDTAGYYCAKDHYYRYEEGDYWGQGTQVTVSS | low polyreactivity
QVQLVESGGGLVQAGGSLRLSCAASGSIFGVYAMGWYRQAPGKERELVAAIDSGSSTDYADSVKGRFTISRDNAKNTVYLQMNSLKPEDTAVYYCYPLDLAPVDYWGQGTQVTVSS | low polyreactivity
QVQLVESGGGLVQAGGSLRLSCAASGSIFGWNAMGWYRQAPGKERELVAAISSGGSTYYADSVKGRFTISRDNAKNTVYLQMNSLKPQDTAVYYCNAFFQYYDYWGQGTQVTVSS | low polyreactivity
QVQLVESGGGLVQAGGSLRLSCAASGSIFGWYAMGWYRQAPGKERELVAAISWDGGDTYYADSVKGRFTISRDNAKNTVYLQMNSLKPEDTAVYYCAAELGYYDYGSYYSYDYWGQGTQVTVSS | high polyreactivity
QVQLVESGGGLVQAGGSLRLSCAASGSIFGWYGMGWYRQAPGKERELVAAINWGGTNTYYADSVKGRFTISRDNAKNTVYLQMISLKPEDTAVYSCNADIPRRPNRHYLYDYWGQATQVTVSS | low polyreactivity
QVQLVESGGGLVQAGGSLRLSCAASGSIFGWYVMGWYRQAPGKERELVAAISSGGSTNYADSVKGRFTISRDNAKNTVYLQMNSLKPEDTAVYYCAKRFRRTPYRNTYKPYDRYYWGQGTQVTVSS | high polyreactivity
QVQLVESGGGLVQAGGSLRLSCAASGSIFGYNAMGWYRQAPGKEREFVAAITSGGSTYYADSVKGRFTISRDNAKNTVYLQMNSLKPEDTAVYYCRRRNVDSTRRYDYWGQGTQVTVSS | high polyreactivity
QVQLVESGGGLVQAGGSLRLSCAASGSIFGYNAMGWYRQAPGKERELVAAINYNGGRTYYADSVKGRFTISRDNAKNTVYLQMNSLKPEDTAVYYCNKVYLRTSGRDYWGQGTQVTVSS | high polyreactivity
QVQLVESGGGLVQAGGSLRLSCAASGSIFGYNAMGWYRQAPGKERELVAAISSSGSSTYADSVKGRFTISRDNAKNTVYLQMNSLKPEDTAVYYCNKTTLLTVEYDYWGQGTQVTVSS | low polyreactivity
QVQLVESGGGLVQAGGSLRLSCAASGSIFGYNAMGWYRQAPGKERELVAAISYSGGRTYYADSVKGRFTISRDNAKHTVYFQKNRLKPEDTAVYYCAKYKVGYVPSGYRYDSWGQGTQVTVSS | high polyreactivity
QVQLVESGGGLVQAGGSLRLSCAASGSIFGYNTMGWYRQAPGKERELVAAISRGGSTNYADSVKGRFTISRDNAKNTVYLQMNSLKPEDTAVYYCAKRRWRQTTYSKGYDYWGQGTQVTVSS | high polyreactivity
QVQLVESGGGLVQAGGSLRLSCAASGSIFGYNVMGWYRQAPGKERDLVAAITYSGGSTYYADSVKGRFTISRDNAKNTVYLQMNSLKPEDTAVYYCAKVTGRRFPAYGYDHWGQGTQVTVSS | high polyreactivity
QVQLVESGGGLVQAGGSLRLSCAASGSIFGYNVMGWYRQAPGKERELVAAISSSTGSTNYADSVKGRFTISRDNAKNTVYLQMNSLKPEDTAVYYCAVDPYVHWTTKLYDYWGQGSQVTVSS | low polyreactivity
QVQLVESGGGLVQAGGSLRLSCAASGSIFGYYALGWSRQAPGKERELVAVITWNTGNTYYADSVKGRFTISRDNAKNTVYLEMNSLKPEDTAVYYCAADQTGWGDTYDYWGQGTQVTVSS | low polyreactivity

Sequence | polyreactivity (PSR sort gate)
QVQLVESGGGLVQAGGSLRLSCAASGSIFGYYAMGWYRQAPGKEREFVAAIRSSGGSTYYADSVKGRFTISRDNAKNTVYLQMNSLKPEDTAVYYCAAGGYPTFFKYGYWGQGTQVTVSS | high polyreactivity
QVQLVESGGGLVQAGGSLRLSCAASGSIFGYYAMGWYRQAPGKEREFVAAISVSGSRTYYADSVKGRFTISRDNAKNTVYLQMNSLKPEYTAVYYCAARVDYRHRYYYWGQGTLVTVSS | high polyreactivity
QVQLVESGGGLVQAGGSLRLSCAASGSIFGYYAMGWYRQAPGKERELVAAIRVSGGRTYYADSVKGRFTISRDNAKNTVYLQMNSLKPEDTAVYYCAKSLIPAYEYWGQGTQVTVSS | high polyreactivity
QVQLVESGGGLVQAGGSLRLSCAASGSIFGYYAMGWYRQAPGKERELVAAISGNGGNTYYADSVKGRFTISRDNAKNTVYLQMNSLKPEDTAVYYCNRAPGYRGGRYDYWGQGTQVTVSS | high polyreactivity
QVQLVESGGGLVQAGGSLRLSCAASGSIFGYYAMGWYRQAPGKERELVAAISRRGGSTYYADSVKGRFTISRDNAKNTVYLQMNSLKPEDTAVYYCAAVGGYASYFHLYYYWGQGTQVTVSS | high polyreactivity
QVQLVESGGGLVQAGGSLRLSCAASGSIFGYYAMGWYRQAPGKERELVAAISSSGASTYYADSVKGRFTISRDNAKNTVYLQMNSLKPEDTAVNYCNAARRYPTRGGYWGQGTQVTVSS | high polyreactivity
QVQLVESGGGLVQAGGSLRLSCAASGSIFGYYAMGWYRQAPGKERELVAAISWSDGSTYYADSVKGRFTISRDNAKNTVYLQMNMLKPEDTAVYYCAARFTPYITSDDGHYDYWGQGTQVTVSS | low polyreactivity
QVQLVESGGGLVQAGGSLRLSCAASGSIFGYYAMGWYRQAPGKERELVAAISWSGGSTYYADSVKGRFTISRDTAKNTVYLQMNSLKPEDTAVYYCAATSRGNDSQKYYYWGQGTQVTVSS | low polyreactivity
QVQLVESGGGLVQAGGSLRLSCAASGSIFGYYAMGWYRQAPGKERELVAAISYGGGRTYYADSVKGRFTISRDNAKNTVYLQMNSLKPEDTAVYYCAADVQSRYVGEGDYWGQGTQVTVSS | high polyreactivity
QVQLVESGGGLVQAGGSLRLSCAASGSIFGYYAMGWYRQAPGKERELVAAITRVSSTNYADSVKGRFTISRDNAKYTVYLHMNSLKPEDTAVYYCAARTLRYYQGNTWGDDYWGQGTQVTVSS | high polyreactivity
QVQLVESGGGLVQAGGSLRLSCAASGSIFGYYAMGWYRQAPGKERELVAAITSGGNTYYADSVKGRFTISRDNAKNTVYLQMNSLKPEDTAVSYCAAEFWYTYPYLVDYWGQGTQVTVSS | low polyreactivity
QVQLVESGGGLVQAGGSLRLSCAASGSIFGYYAMGWYRQAPGKERELVAAITTRGGRTYYADSVKGRFTISRDNAKNTVYFQINSLKPEDTAVYYCAARTGRGRYDYWGQGTQVTVSS | high polyreactivity
QVQLVESGGGLVQAGGSLRLSCAASGSIFGYYAMGWYRQAPGKERELVAAIWRGDNTYYADSVKGRFTISRDNAKNTVYLQMNSLKPEDTAVYYCAARYWSRRIFREGYWGQGTQVTVSS | low polyreactivity
QVQLVESGGGLVQAGGSLRLSCAASGSIFGYYAMGWYRQAPGKERELVAVIRRSSGSTYYADSVKGRITISRDNAKKTVYLQMNSLKPEDTAVFYCASRRYEPIIWHSMDYWGQGTQVTVSS | low polyreactivity
QVQLVESGGGLVQAGGSLRLSCAASGSIFGYYAMGWYRQAPGNERELVAAISFSAGNTYYADSVKGRFTISRDNAKNTVYLQMNSLKPEDSAVYYCAADPKYWTGWIWTSGYDYWGQGTQVTVSS | high polyreactivity
QVQLVESGGGLVQAGGSLRLSCAASGSIFGYYTMGLYRQAPGKERELVATINWSGGSTYYADSVKGRFTISRDNAKNTVYLQMNSLKPEDTAVYYCAKTRPYLRYWDSSTYDYWGQGTQVTVSS | high polyreactivity
QVQLVESGGGLVQAGGSLRLSCAASGSIFGYYTMGWYRQAPGKERELVARISSSGARTYYADSVKGRFTISRDNAKNTVYLQMNSLKPEDTAVYYCNAQFGYRTIYYISQYYEYGYWGQGTQVTVSS | high polyreactivity
QVQLVESGGGLVQAGGSLRLSCAASGSIFGYYVMGWYRQAPGKERELVAAISRSGGSTYYADSVKGRFTISRDNAKNTVYLQMNSLIPEATAVYYCAARGTAERDYWGQGNQVTVSS | high polyreactivity
QVQLVESGGGLVQAGGSLRLSCAASGSIFGYYVMGWYRQAPGKERELVAAITRSGSTYYADSVKGRFTISRDNAKNTVYLQMNSLKPEDTAVYYCAADGSYYWYPHTTYDYWGQGTQVTVSS | low polyreactivity
QVQLVESGGGLVQAGGSLRLSCAASGSIFHDYAMGWYRQAAGKERELVAVISTSGGSTYYADSVKGRFTISRDNAKNTVYLQMNSLKPEDTAVYYCAADPFDGYSSSEYDYWGQGTQVTVSS | low polyreactivity
